Measurements reported in IntAct's records for PubMed 31515488.

B1: Alpha-taxilin (Homo sapiens), P40222 (parent)
chain: MKNQDKKNGAAKQSNPKSSPGQPEAGPEGAQERPSQAAPAVEAEGPGSSQAPRKPEGAQARTAQSGALRDVSEELSRQLEDILSTYCVDNNQGGPGEDGAQGEPAEPEDAEKSRTYVARNGEPEPTPVVNGEKEPSKGDPNTEEIRQSDEVGDRDHRRPQEKKKAKGLGKEITLLMQTLNTLSTPEEKLAALCKKYAELLEEHRNSQKQMKLLQKKQSQLVQEKDHLRGEHSKAVLARSKLESLCRELQRHNRSLKEEGVQRAREEEEKRKEVTSHFQVTLNDIQLQMEQHNERNSKLRQENMELAERLKKLIEQYELREEHIDKVFKHKDLQQQLVDAKLQQAQEMLKEAEERHQREKDFLLKEAVESQRMCELMKQQETHLKQQLALYTEKFEEFQNTLSKSSEVFTTFKQEMEKMTKKIKKLEKETTMYRSRWESSNKALLEMAEEKTVRDKELEGLQVKIQRLEKLCRALQTERNDLNKRVQDLSAGGQGSLTDSGPERRPEGPGAQAPSSPRVTEAPCYPGAPSTEASGQTGPQEPTSARA
partner: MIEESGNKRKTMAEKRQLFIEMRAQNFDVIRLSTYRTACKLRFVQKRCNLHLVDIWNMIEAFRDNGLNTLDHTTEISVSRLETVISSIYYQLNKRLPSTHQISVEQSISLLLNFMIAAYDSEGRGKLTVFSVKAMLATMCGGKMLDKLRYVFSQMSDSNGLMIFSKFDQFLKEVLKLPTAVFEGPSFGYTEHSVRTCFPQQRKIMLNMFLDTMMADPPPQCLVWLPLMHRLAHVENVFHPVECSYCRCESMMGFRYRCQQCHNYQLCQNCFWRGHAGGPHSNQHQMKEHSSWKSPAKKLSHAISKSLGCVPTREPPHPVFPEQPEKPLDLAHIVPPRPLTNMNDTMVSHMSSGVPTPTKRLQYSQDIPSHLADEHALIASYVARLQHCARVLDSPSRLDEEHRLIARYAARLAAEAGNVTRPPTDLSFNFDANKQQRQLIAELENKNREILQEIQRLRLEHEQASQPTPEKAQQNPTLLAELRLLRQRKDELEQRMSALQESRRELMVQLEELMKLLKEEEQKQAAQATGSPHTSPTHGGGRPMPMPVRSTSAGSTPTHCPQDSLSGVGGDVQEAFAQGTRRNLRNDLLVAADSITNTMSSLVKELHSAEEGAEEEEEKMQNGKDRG
B2: Nanos homolog 2 (Homo sapiens), P60321 (parent)
chain: MQLPPFDMWKDYFNLSQVVWALIASRGQRLETQEIEEPSPGPPLGQDQGLGAPGANGGLGTLCNFCKHNGESRHVYSSHQLKTPDGVVVCPILRHYVCPVCGATGDQAHTLKYCPLNGGQQSLYRRSGRNSAGRRVKR
B3: Mevalonate kinase (Homo sapiens), Q03426 (parent)
chain: MLSEVLLVSAPGKVILHGEHAVVHGKVALAVSLNLRTFLRLQPHSNGKVDLSLPNIGIKRAWDVARLQSLDTSFLEQGDVTTPTSEQVEKLKEVAGLPDDCAVTERLAVLAFLYLYLSICRKQRALPSLDIVVWSELPPGAGLGSSAAYSVCLAAALLTVCEEIPNPLKDGDCVNRWTKEDLELINKWAFQGERMIHGNPSGVDNAVSTWGGALRYHQGKISSLKRSPALQILLTNTKVPRNTRALVAGVRNRLLKFPEIVAPLLTSIDAISLECERVLGEMGEAPAPEQYLVLEELIDMNQHHLNALGVGHASLDQLCQVTRARGLHSKLTGAGGGGCGITLLKPGLEQPEVEATKQALTSCGFDCLETSIGAPGVSIHSATSLDSRVQQALDGL
B4: Angiomotin (Homo sapiens), Q4VCS5 (parent)
chain: MRNSEEQPSGGTTVLQRLLQEQLRYGNPSENRSLLAIHQQATGNGPPFPSGSGNPGPQSDVLSPQDHHQQLVAHAARQEPQGQEIQSENLIMEKQLSPRMQNNEELPTYEEAKVQSQYFRGQQHASVGAAFYVTGVTNQKMRTEGRPSVQRLNPGKMHQDEGLRDLKQGHVRSLSERLMQMSLATSGVKAHPPVTSAPLSPPQPNDLYKNPTSSSEFYKAQGPLPNQHSLKGMEHRGPPPEYPFKGMPPQSVVCKPQEPGHFYSEHRLNQPGRTEGQLMRYQHPPEYGAARPAQDISLPLSARNSQPHSPTSSLTSGGSLPLLQSPPSTRLSPARHPLVPNQGDHSAHLPRPQQHFLPNQAHQGDHYRLSQPGLSQQQQQQQQQHHHHHHHQQQQQQQPQQQPGEAYSAMPRAQPSSASYQPVPADPFAIVSRAQQMVEILSDENRNLRQELEGCYEKVARLQKVETEIQRVSEAYENLVKSSSKREALEKAMRNKLEGEIRRMHDFNRDLRERLETANKQLAEKEYEGSEDTRKTISQLFAKNKESQREKEKLEAELATARSTNEDQRRHIEIRDQALSNAQAKVVKLEEELKKKQVYVDKVEKMQQALVQLQAACEKREQLEHRLRTRLERELESLRIQQRQGNCQPTNVSEYNAAALMELLREKEERILALEADMTKWEQKYLEENVMRHFALDAAATVAAQRDTTVISHSPNTSYDTALEARIQKEEEEILMANKRCLDMEGRIKTLHAQIIEKDAMIKVLQQRSRKEPSKTEQLSCMRPAKSLMSISNAGSGLLSHSSTLTGSPIMEEKRDDKSWKGSLGILLGGDYRAEYVPSTPSPVPPSTPLLSAHSKTGSRDCSTQTERGTESNKTAAVAPISVPAPVAAAATAAAITATAATITTTMVAAAPVAVAAAAAPAAAAAPSPATAAATAAAVSPAAAGQIPAAASVASAAAVAPSAAAAAAVQVAPAAPAPVPAPALVPVPAPAAAQASAPAQTQAPTSAPAVAPTPAPTPTPAVAQAEVPASPATGPGPHRLSIPSLTCNPDKTDGPVFHSNTLERKTPIQILGQEPDAEMVEYLI
partner: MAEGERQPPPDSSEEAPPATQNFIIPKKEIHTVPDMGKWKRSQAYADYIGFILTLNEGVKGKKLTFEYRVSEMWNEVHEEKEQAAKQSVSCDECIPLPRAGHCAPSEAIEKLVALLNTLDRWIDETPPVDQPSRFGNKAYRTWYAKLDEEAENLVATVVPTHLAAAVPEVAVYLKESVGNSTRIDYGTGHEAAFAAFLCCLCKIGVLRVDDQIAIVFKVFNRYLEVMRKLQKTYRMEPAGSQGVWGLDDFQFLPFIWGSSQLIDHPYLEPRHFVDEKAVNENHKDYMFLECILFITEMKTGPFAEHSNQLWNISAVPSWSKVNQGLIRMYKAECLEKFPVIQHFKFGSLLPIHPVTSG
B5: Aflatoxin B1 aldehyde reductase member 2 (Homo sapiens), O43488 (parent)
chain: MLSAASRVVSRAAVHCALRSPPPEARALAMSRPPPPRVASVLGTMEMGRRMDAPASAAAVRAFLERGHTELDTAFMYSDGQSETILGGLGLGLGGGDCRVKIATKANPWDGKSLKPDSVRSQLETSLKRLQCPQVDLFYLHAPDHGTPVEETLHACQRLHQEGKFVELGLSNYASWEVAEICTLCKSNGWILPTVYQGMYNATTRQVETELFPCLRHFGLRFYAYNPLAGGLLTGKYKYEDKDGKQPVGRFFGNSWAETYRNRFWKEHHFEAIALVEKALQAAYGASAPSVTSAALRWMYHHSQLQGAHGDAVILGMSSLEQLEQNLAATEEGPLEPAVVDAFNQAWHLVAHECPNYFR
partner: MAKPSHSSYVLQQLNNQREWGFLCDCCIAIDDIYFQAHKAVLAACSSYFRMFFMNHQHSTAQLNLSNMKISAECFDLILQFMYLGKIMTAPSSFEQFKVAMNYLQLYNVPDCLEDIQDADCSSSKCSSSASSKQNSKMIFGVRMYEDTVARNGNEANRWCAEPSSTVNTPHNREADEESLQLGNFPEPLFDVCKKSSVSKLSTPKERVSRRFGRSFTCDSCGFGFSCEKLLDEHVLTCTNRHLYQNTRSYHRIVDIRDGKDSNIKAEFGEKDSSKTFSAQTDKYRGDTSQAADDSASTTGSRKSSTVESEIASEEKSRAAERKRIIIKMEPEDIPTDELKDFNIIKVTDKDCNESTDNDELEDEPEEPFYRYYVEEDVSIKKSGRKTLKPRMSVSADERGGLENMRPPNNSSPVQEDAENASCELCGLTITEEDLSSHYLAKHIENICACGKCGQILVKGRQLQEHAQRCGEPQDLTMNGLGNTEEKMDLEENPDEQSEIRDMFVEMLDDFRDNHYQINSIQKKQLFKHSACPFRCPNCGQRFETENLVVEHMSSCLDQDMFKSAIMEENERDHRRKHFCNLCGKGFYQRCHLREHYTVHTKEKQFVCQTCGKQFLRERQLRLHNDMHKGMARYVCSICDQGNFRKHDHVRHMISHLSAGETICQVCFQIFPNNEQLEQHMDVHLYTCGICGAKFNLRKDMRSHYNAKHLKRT
B6: Syntenin-2 (Homo sapiens), Q9H190 (parent)
chain: MSSLYPSLEDLKVDQAIQAQVRASPKMPALPVQATAISPPPVLYPNLAELENYMGLSLSSQEVQESLLQIPEGDSTAVSGPGPGQMVAPVTGYSLGVRRAEIKPGVREIHLCKDERGKTGLRLRKVDQGLFVQLVQANTPASLVGLRFGDQLLQIDGRDCAGWSSHKAHQVVKKASGDKIVVVVRDRPFQRTVTMHKDSMGHVGFVIKKGKIVSLVKGSSAARNGLLTNHYVCEVDGQNVIGLKDKKIMEILATAGNVVTLTIIPSVIYEHMVKKLPPVLLHHTMDHSIPDA
partner: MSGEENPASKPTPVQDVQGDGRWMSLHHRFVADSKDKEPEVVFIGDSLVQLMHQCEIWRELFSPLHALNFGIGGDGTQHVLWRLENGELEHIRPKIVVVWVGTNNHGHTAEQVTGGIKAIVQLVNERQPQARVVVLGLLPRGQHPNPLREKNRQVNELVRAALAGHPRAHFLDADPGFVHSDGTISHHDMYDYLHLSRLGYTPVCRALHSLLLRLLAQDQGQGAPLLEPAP

Variants of: B1
Conditions: with dtnb_human DTNB

Row | Variant | effect of a mutation on the interaction
1 | R154G | disrupting interaction strength

Variants of: B2
Conditions: with magac_human MAGEA12, P43365
Chain of magac_human MAGEA12, P43365 (P43365 whole entry): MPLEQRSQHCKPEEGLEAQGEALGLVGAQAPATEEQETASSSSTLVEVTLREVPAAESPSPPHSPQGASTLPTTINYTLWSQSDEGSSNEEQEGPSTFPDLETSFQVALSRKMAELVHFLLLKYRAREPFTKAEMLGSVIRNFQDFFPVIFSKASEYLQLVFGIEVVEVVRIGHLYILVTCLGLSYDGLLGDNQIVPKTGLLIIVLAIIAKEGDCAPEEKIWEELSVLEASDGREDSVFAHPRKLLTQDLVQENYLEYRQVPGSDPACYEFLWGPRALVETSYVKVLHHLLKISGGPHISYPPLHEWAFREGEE

Row | Variant | effect of a mutation on the interaction
2 | H68Q | with no effect
3 | F13L | with no effect
4 | R26Q | with no effect
5 | R73C | with no effect

Variants of: B2
Conditions: with ccdb1_human CCNDBP1, O95273
Chain of ccdb1_human CCNDBP1, O95273 (O95273 whole entry): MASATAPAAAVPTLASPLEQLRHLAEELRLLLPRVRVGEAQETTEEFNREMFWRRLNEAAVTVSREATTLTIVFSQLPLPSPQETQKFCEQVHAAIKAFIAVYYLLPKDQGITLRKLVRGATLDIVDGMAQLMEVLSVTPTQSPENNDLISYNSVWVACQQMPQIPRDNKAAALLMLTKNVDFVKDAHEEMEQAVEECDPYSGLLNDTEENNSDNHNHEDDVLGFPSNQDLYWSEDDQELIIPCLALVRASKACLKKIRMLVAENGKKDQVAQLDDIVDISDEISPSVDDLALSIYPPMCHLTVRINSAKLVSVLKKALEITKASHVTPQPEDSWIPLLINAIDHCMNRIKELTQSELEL

Row | Variant | effect of a mutation on the interaction
6 | H68Q | with no effect
7 | F13L | with no effect
8 | R26Q | with no effect
9 | R73C | with no effect

Variants of: B3
Conditions: with ews_human EWSR1, Q01844
Chain of ews_human EWSR1, Q01844 (Q01844 whole entry): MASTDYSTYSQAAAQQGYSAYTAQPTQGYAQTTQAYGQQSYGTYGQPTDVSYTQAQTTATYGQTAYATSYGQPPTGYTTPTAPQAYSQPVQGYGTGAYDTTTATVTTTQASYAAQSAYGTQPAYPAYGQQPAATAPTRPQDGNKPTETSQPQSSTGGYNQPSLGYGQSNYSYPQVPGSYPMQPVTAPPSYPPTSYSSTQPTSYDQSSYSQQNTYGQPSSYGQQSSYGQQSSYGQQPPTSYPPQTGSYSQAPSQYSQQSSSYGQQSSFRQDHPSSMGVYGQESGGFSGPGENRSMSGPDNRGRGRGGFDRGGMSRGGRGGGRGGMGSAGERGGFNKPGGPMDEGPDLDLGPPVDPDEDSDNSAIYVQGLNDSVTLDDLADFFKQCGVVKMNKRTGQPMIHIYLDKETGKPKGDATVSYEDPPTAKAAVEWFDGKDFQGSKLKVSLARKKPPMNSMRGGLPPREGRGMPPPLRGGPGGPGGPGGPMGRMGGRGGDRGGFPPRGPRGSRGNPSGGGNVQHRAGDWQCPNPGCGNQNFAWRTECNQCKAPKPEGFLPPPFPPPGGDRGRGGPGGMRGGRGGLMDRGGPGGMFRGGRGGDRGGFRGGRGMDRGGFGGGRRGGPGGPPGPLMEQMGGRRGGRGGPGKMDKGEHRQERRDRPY

Row | Variant | effect of a mutation on the interaction
10 | N301T | with no effect
11 | H20Q | with no effect

Variants of: B4
Conditions: with ptpa_human PTPA

Row | Variant | effect of a mutation on the interaction
12 | T899A | with no effect

Variants of: B5
Conditions: with zbtb1_human ZBTB1, Q9Y2K1

Row | Variant | effect of a mutation on the interaction
13 | A142T | disrupting interaction strength

Variants of: B6
Conditions: with pa1b3_human PAFAH1B3, Q15102

Row | Variant | effect of a mutation on the interaction
14 | G242R | with no effect
